Tests used:
[1] = target: DgDps1 (Dgeo_0281) (Deinococcus geothermalis) (UniProt Q1J1Q0); assay: SEC; HiLoad 16/600 Superdex 75 prep grade; 25 mM Tris-HCl pH 7.5, 150 mM NaCl; size markers ferritin 440 kDa, conalbumin 75 kDa, ovalbumin 43 kDa, anhydrase 29 kDa; also run with 1 mM Fe2+ or Fe3+
[2] = test system: DgDps1 (Dgeo_0281) (Deinococcus geothermalis); assay: EMSA; details: EMSA 1x (from 5x stock): 20 mM HEPES pH 7.2, 32 mM KCl, 0.1 mM EDTA, 10% glycerol, 70 ng/uL BSA, 8 ng/uL poly(dI-dC), 2.5 mM DTT; 37 C 30 min; 6% native PAGE …
[3] = test system: Dgeo_0257 (putative Dps, DgDps3) (Deinococcus geothermalis); assay: EMSA; details: no added metal; half-maximal shift, fragment not specified; EMSA 1x (from 5x stock): 20 mM HEPES pH 7.2, 32 mM KCl, 0.1 mM EDTA, 10% glycerol, 70 ng/uL BSA, 8 ng/uL poly(dI-dC), 2.5 mM DTT; 37 C 30 min; 6% native PAGE …

| stoichiometry N [1] | Substance | Kd [2] [µM] | Kd [3] [µM] |
| --- | --- | --- | --- |
| 2 | DgDps1 (Dgeo_0281) (from UniProt Q1J1Q0 1-222) (natural protein) | – | – |
| – | Dgeo_2112 promoter region | > 40 | < 4 |
| – | Dgeo_2112 ORF region | > 40 | < 4 |

From publication PMC9820295
